Data reported in PMC10496494.

Legend:
[1] = target: DDX24^E271K (DDX24 with the p.Glu271Lys mutation of MOVLD patients) (human) (UniProt Q9GZR7); test: SPR; Biacore T200; DDX24 immobilised on CM5 chip by amine coupling, NPM1 injected in a concentration series; PBS with 0.05% Tween-20 and 1% DMSO, pH 7.4, 25 °C; Langmuir 1:1 binding model
[2] = target: NPM1 (human wildtype nucleophosmin, residues 1 to 290) (human) (UniProt P06748); test: SPR; Biacore T200; NPM1 immobilised on CM5 chip by amine coupling, DDX24 injected in a concentration series; PBS with 0.05% Tween-20 and 1% DMSO, pH 7.4, 25 °C; Langmuir 1:1 binding model
Chain of NPM1 (human wildtype nucleophosmin, residues 1 to 290) (human) (P06748 1-290): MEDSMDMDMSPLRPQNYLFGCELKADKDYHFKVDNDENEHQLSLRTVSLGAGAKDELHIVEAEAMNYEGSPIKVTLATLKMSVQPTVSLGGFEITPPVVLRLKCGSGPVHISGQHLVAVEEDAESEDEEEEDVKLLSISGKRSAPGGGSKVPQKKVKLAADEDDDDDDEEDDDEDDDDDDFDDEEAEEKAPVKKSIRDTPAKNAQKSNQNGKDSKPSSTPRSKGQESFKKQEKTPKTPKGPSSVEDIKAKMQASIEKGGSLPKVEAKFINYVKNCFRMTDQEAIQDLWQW

Chain of NPM1 (human wildtype nucleophosmin, residues 1 to 290) (P06748 1-290): as above

Row | Substance | Kd [1] [nM] | koff [1] [s⁻¹] | kon [1] [M⁻¹ s⁻¹] | Kd [2] [nM] | koff [2] [s⁻¹] | kon [2] [M⁻¹ s⁻¹]
1 | NPM1 (human wildtype nucleophosmin, residues 1 to 290) (from UniProt P06748 1-290) (natural protein) | 2.92 | 0.00165 | 564000 |  |  | 
2 | DDX24^E271K (DDX24 with the p.Glu271Lys mutation of MOVLD patients) (from UniProt Q9GZR7 28-859) (enzyme) |  |  |  | 5.5 | 0.00316 | 575000
